Common to all, as to conditions: 5' triphosphate, B1: 50 mM Tris-HCl pH 8.0, 150 mM NaCl, 1 mM MgCl2, 2 mM beta-mercaptoethanol, 10% glycerol, 20 C, B2: same with 100 mM NaCl
For data set [1], the target named is T1, ZIKV NS5 MTase domain WT (Zika virus) (UniProt A0A142I5B9). Kind of data set: fluorescence anisotropy. In general terms: Polarisation of emitted light reports the rotation of a fluorescent probe.
The target of data set [2] is T1, ZIKV NS5 MTase domain WT (Zika virus). Nature of the data set: fluorescence titration.
Data set [3] addresses ZIKV NS5 WT (Zika virus) (UniProt A0A024B7W1). Nature of the data set: fluorescence titration.
The target in data set [4] is T1, ZIKV NS5 MTase domain WT (Zika virus). Nature of the data set: fluorescence titration. The source holds these as a separate data set.
The subject of data set [5] is ZIKV NS5 RdRp domain (Zika virus). Nature of the data set: fluorescence titration.

The Kd is the constant that tells how readily two partners part at equilibrium. Read a high Kd as lower affinity. Turning to ZIKV SLA (SLA-F), the Kd in data set [1] amounted to 310 nM; in data set [2] it was 400 nM; in data set [3], 280 nM; in data set [4], 590 nM; in data set [5], 530 nM.
